{"source": "paper PMC2175300", "binders": {"B1": {"name": "26-bp FOXO consensus FA duplex (dsDNA)", "DNA 1": "CGCATCCTATGTAAACAACTCGAGTC", "DNA 2": "GACTCGAGTTGTTTACATAGGATGCG"}}, "test_in_all_cases": "fluorescence anisotropy", "key": {"FOXO3a-DBD K242A": {"target": "FOXO3a-DBD K242A (Homo sapiens, UniProt O43524 158-253, K242A)", "sequence (O43524 158-253 K242A)": "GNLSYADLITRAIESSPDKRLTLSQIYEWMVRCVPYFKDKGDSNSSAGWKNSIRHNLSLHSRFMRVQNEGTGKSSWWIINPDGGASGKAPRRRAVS"}, "FOXO3a-DBD K245A": {"target": "FOXO3a-DBD K245A (Homo sapiens, UniProt O43524 158-253, K245A)", "sequence (O43524 158-253 K245A)": "as the sequence (O43524 158-253 K242A) above, with A85K, K88A counted along it"}, "FOXO3a-DBD RRR/AAA": {"target": "FOXO3a-DBD RRR/AAA (Homo sapiens, UniProt O43524 158-253, R248A;R249A;R250A)", "sequence (O43524 158-253 R248A/R249A/R250A)": "as the sequence (O43524 158-253 K242A) above, with A85K, R91A, R92A, R93A counted along it"}, "FOXO3a-DBD 158-240": {"target": "FOXO3a-DBD 158-240 (Homo sapiens, UniProt O43524 158-240)", "sequence (O43524 158-240)": "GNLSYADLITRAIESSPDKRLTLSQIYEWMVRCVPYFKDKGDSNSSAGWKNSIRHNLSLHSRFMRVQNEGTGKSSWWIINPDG"}, "FOXO3a-DBD WT": {"target": "FOXO3a-DBD WT (Homo sapiens, UniProt O43524 158-253)", "sequence (O43524 158-253)": "as the sequence (O43524 158-253 K242A) above, with A85K counted along it"}, "FOXO3a-DBD S253D": {"target": "FOXO3a-DBD S253D (Homo sapiens, UniProt O43524 158-253, S253D)", "sequence (O43524 158-253 S253D)": "as the sequence (O43524 158-253 K242A) above, with A85K, S96D counted along it"}}, "data": [{"binder": "B1", "values": [{"measurement": "Kd", "setting": "FOXO3a-DBD K242A", "value": "399 ± 25", "unit": "nM"}, {"measurement": "Kd", "setting": "FOXO3a-DBD K245A", "value": "511 ± 63", "unit": "nM"}, {"measurement": "Kd", "setting": "FOXO3a-DBD RRR/AAA", "value": "1180 ± 168", "unit": "nM"}, {"measurement": "Kd", "setting": "FOXO3a-DBD 158-240", "value": "1490 ± 197", "unit": "nM"}, {"measurement": "Kd", "setting": "FOXO3a-DBD WT", "value": "295 ± 26", "unit": "nM"}, {"measurement": "Kd", "setting": "FOXO3a-DBD S253D", "value": "549 ± 55", "unit": "nM"}]}]}
